T1: IL-18 receptor (IL-18Rα/IL-18Rβ) overexpressed on HEK-Blue IL-18 cells (Homo sapiens (Human), UniProt Q13478 19-541; O95256 20-599)
T1 sequence 1: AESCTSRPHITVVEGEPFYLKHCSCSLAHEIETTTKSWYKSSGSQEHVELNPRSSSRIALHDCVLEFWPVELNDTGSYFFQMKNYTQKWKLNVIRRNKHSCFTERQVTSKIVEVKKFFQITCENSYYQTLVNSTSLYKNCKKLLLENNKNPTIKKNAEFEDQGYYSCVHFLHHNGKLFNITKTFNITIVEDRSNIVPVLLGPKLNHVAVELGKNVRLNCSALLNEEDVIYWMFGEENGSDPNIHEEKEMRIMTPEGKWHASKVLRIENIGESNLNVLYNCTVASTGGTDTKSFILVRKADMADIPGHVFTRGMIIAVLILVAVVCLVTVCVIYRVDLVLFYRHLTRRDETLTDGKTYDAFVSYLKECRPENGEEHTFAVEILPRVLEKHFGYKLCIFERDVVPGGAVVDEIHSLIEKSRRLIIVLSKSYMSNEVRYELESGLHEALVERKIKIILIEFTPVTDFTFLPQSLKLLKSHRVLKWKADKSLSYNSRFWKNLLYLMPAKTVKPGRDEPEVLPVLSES
T1 sequence 2: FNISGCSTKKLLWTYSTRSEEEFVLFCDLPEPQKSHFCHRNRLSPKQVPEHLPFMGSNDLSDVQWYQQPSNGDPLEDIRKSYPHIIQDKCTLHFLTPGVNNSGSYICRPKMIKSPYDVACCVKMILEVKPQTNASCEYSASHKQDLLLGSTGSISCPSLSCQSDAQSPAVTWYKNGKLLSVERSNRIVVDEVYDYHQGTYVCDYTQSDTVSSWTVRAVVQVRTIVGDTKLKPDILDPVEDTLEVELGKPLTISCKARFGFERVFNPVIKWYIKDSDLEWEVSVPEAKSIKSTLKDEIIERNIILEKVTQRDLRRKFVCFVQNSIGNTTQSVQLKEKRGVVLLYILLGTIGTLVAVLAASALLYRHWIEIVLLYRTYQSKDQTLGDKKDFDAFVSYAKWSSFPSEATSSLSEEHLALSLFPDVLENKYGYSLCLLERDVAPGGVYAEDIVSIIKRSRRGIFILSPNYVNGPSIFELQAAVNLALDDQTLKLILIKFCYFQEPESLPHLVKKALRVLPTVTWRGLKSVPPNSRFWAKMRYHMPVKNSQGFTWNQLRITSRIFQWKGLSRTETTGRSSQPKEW

B1: DGL090 (bispecific antibody, V domains shown)
V domain 1: EVQLVESGGGLVQPGGSLRLSCAASGFFLDDYVLGWFRQAPGKPREGVSCISSRGRYLNYAETVKGRFTISRSNAKNTVYLQMNNLEPEDTAVYYCAAVRRVSEVCKLAEDDFASWGQGTQVTVSS
V domain 2: QVQLQESGGGLVQAGGSLKLSCQASGLTFKRNTMGWFRQAPGKEREFVAHFLWTGGETDYADAVKGRFTISRDNAKNTVYLQMNSLKPEDTAVYFCAANYAGYRIDGYQYWGQGTQVTVSS
B2: DGL077 (bispecific antibody, V domains shown)
V domain 1: QVQLQESGGGLVQPGGSLRLSCAASGSIFSTKGLGWYRQAPGEQRELVAGISSAGWIFYTQSVKGRFTMSRDNAKNTVYLQMNSLKPEDTAVYYCNSAQSGVPLRSWGQGTQVTVAS
V domain 2: EVQLVESGGGVAQAGGSLRLSCAASITSFSLNTMGYYRQLPGKQRELVAVESSSGITNYADSVKGRFTISRDGAKNTVFLQMNSLTPEDTAVYYCGGKLFGRDFWGQGTQVTVSS
B3: DGL052 (bispecific antibody, V domains shown)
V domain 1: QVQLQESGGGLVQPGGSLRLSCAASGFIFSNWYMRWVRQAPGEGLEWVSSINSGGDDTDYADSVKGRFTISRDNAKGTLYLQMHSLKPEDTALYYCERGADRVRGQGTQVTVSS
V domain 2: QVQLVESGGDLVLPGGSLKLSCEASGSISSRNSMAWYRRAPGKQRELVAAISSISSGGRTDYADFVKGRFTIFRDTAKNMVYLQMNNLKPEDTAVYDCDDPIRVASLAYDDWGQGTQVTVSS
B4: DGL060 (bispecific antibody, V domains shown)
V domain 1: EVQLVESGGGLVQPGGSLRLSCAASGSIFSINAMGWYRQAPGKQREVVATSTGGGMTNYADSVKGRFTISRDNAKNTVYLQMNSLKPEDTAVYYCNADKDPFFPGDYWGQGTQVTVSS
V domain 2: QVQLQESGGGLVQPGGSLGLSCAASGIKISVNSMAWYRQAPGERREMVAVISSGGSAVYADSVKGRFTISRDNAKNMVYLQMNSLKPEDTAVYYCHPGSAAYRDYWGQGTQVTVSS
B5: DGL075 (bispecific antibody, V domains shown)
V domain 1: B4 V domain 1
V domain 2: B2 V domain 2
B6: DGL068 (bispecific antibody, V domains shown)
V domain 1: B4 V domain 1
V domain 2: QVQLVESGGGLVQAGGSLRLSCVASGTFFQIHVMGWYRQAPGKQRELVAFIINNGGTRYADSVKGRFTISRDYAKNTVYLQMNSLKPEDTAVYYCNTEGTYRGRYSTDNWGQGTQVTVSS
B7: DGL082 (bispecific antibody, V domains shown)
V domain 1: B4 V domain 1
V domain 2: QVQLVESGGGLVQAGGSLRLSCAASGRSVSENDVRWYRQAPRKQREWVAAITSSGITGYADSVRIRFTISRDLAKNTVYLQMNSLKPEDTAVYYCYMTDQYWGQGTQVTVSS
B8: DGL063 (bispecific antibody, V domains shown)
V domain 1: QLQLVESGGGLVQPGGSLRLSCAASGKIFSINIMDWYRQAPGKERELVARISPGDIITYANDVKGRFTISRNNAKNTVYLQMNSLKPEDTAVYYCRWRQGAGDYWGRGTQVTVSS
V domain 2: B4 V domain 2
B9: DGL062 (bispecific antibody, V domains shown)
V domain 1: B2 V domain 1
V domain 2: B4 V domain 2
B10: DGL061 (bispecific antibody, V domains shown)
V domain 1: QVQLQESGGGLVQPGGSLRLSCAASGNIFRATGMGWYRQAPGKWRELVARISSTGSPNYVDFVKGRFTISRDNAKNTLYLQMNSLKPDDTAVYYCNTVGTTLFAWGQGTQVTVSS
V domain 2: B4 V domain 2
B11: DGL076 (bispecific antibody, V domains shown)
V domain 1: B10 V domain 1
V domain 2: B2 V domain 2
B12: DGL078 (bispecific antibody, V domains shown)
V domain 1: QVQLQESGGGLVQAGGSLRLSCIVSGSIVRIDFMGWYRQAPGKKRDMVATITTGGSTNYADSVKDRFTISRDNAKNTLSLQVNDLKPEDTAVYYCNSVVHTTSRPPVLYWGQGTQVTVSS
V domain 2: B2 V domain 2
B13: DGL079 (bispecific antibody, V domains shown)
V domain 1: EVQLVESGGGLVQAGGSLRLSCAASGRTFSNYDMGWFRQAPEKEREFVAVISGPGGIAFYGDSVKGRFTISRDNTKNTVYLQMNRLKSEDTAVYYCAAAPRGSYYRRTNSYDYWGQGTQVTVSS
V domain 2: B2 V domain 2
B14: DGL320 (bispecific antibody, V domains shown)
V domain 1: B2 V domain 1
V domain 2: QLQLVESGGGLVQAGGSLRLSCAASRSITFSHNVMGWYRQAPGKQRELVASIGSGGSTNYVDSVKGRATISRDNAKKTVYLQMNSLKPEDTAVYYCGVVVGVYRGSLGQGTQVTVSS
B15: DGL322 (bispecific antibody, V domains shown)
V domain 1: QVQLVESGGGLVQAGGSLRLSCAASGRTFSSYTMGWFRQAPGKEREFVAAISWSAGRTYYADSVKGRFTISRDNAKNTVYLQMNSLKPEDTAVYFCAAEEAPDWAPIDCSGYGCLSLYDYWGQGTQVTVSS
V domain 2: B14 V domain 2
B16: DGL321 (bispecific antibody, V domains shown)
V domain 1: QVQLQESGGGLVQPGGSARLSCVASGIIFNDYHMGWYRQAPGKQRDLVAGITAGGSTTYADSVKGRFTISRDNAKHTVYLQMNNLSPEDTAVYYCNTFYNAILDWGKGTLVTVSS
V domain 2: B14 V domain 2
B17: DGL323 (bispecific antibody, V domains shown)
V domain 1: B3 V domain 1
V domain 2: B14 V domain 2

molecular target: T1, IL-18 receptor (IL-18Rα/IL-18Rβ) …; assay: cell-based or functional assay

Row | HEK-Blue IL-18: Abs405 (Emax) | HEK-Blue IL-18: EC50 | Binder
1 | 0.26 Abs | 0.033 nM | B1
2 | 0.6 Abs | 0.0054 nM | B2
3 | 1.03 Abs | 0.0041 nM | B3
4 | 0.6 Abs | 0.028 nM | B4
5 | 0.81 Abs | 0.028 nM | B5
6 | 0.36 Abs | 0.018 nM | B6
7 | 0.47 Abs | 0.012 nM | B7
8 | 0.6 Abs | 0.014 nM | B8
9 | 0.88 Abs | 0.0034 nM | B9
10 | 0.47 Abs | 0.0063 nM | B10
11 | 0.49 Abs | 0.0066 nM | B11
12 | 0.65 Abs | 0.024 nM | B12
13 | 0.32 Abs | 0.017 nM | B13

molecular target: T1, IL-18 receptor (IL-18Rα/IL-18Rβ) …; assay: cell-based or functional assay; remark: another data set of the same source

Row | HEK-Blue IL-18: Abs 405 | HEK-Blue IL-18: Fold over Background | Binder
14 | 2.36 Abs | 10.3 fold | B14
15 | 0.74 Abs | 3.2 fold | B15
16 | 0.38 Abs | 1.7 fold | B16
17 | 0.42 Abs | 1.8 fold | B17
